Experimental data taken from patent publication US20240228986A1, “ENGINEERED CELLS, ENZYMES, AND METHODS FOR PRODUCING CANNABINOIDS” (priority 2021, published 2024).

Key:
olivetolic acid [1] = test: Fusions of different GPSs with MPT4, in vivo assay (Example 7); format: cell-based, Yarrowia; details: 1 mM olivetolic acid, 72 h quench
Method: As described below, plasmids pCL-SE-0337, 0406, 0452 and 0453 were transformed into strain sCL-SE-0128. Multiple colonies per transformation were precultured for 24 h in YNB containing glycerol (2%), casamino acids (0.5%), and MES (100 mM pH 6.5). Pre-culture was used to inoculate assay medium comprised of YNB containing glycerol (2%), casamino acids (0.5%), MES (100 mM pH 6.5), and olivetolic acid (1 mM). Cultures were quenched after 72 h total growth and assayed for CBGA and F-CBGA. Averages and standard deviations were calculated from replicates.
However, sCL-SE-0128 expresses HMGR and GPS1.1 to increase intracellular GPP levels for prenylation of OA to CBGA. The plasmids that were transformed contain a gene expressing a fusion between two different GPSs and a prenyl-transferase. The same linker is used for all constructs. […] Additionally, as illustrated by GPS2 (pCL-SE-0453), certain GPS-MPT combinations result in very high CBGA/ FCBGA ratios.
(§1) Overnight YPD (10 g/L yeast extract, 20 g/L peptone, 2% dextrose) cultures were inoculated from glycerol stocks of the appropriate strain and grown at 30° C. with 250 rpm shaking. Once cultures had reached an OD600 of 4-6, cultures were centrifuged at 500×g for 5 min, supernatants were discarded, and cell pellets were resuspended in equal volume of water. Resuspended cells were centrifuged at 500×g for 5 min, supernatants were discarded, and cells were resuspended in a volume (75 μL×OD×Vculture) of transformation cocktail (45% PEG-400, 0.1 M LiAc, 0.1 M DTT, and 25 ug/100 μL SS Salmon Sperm DNA). For each transformation, >1 μg of plasmid DNA was added to 55 μL cells/transformation cocktail and vortexed for 2 s. Transformations were incubated at 39° C. for 1 h with 250 rpm shaking. Transformations were resuspended in 750 μL YPD with 1 M sorbitol and recovered at 30° C. overnight with 250 rpm shaking. The next day, transformations were centrifuged at 500×g for 5 min, supernatants were discarded, and cell pellets were resuspended in 750 YPD. Resuspended transformations were plated on YPD with appropriate selection or YNBD (6.71 g/L yeast nitrogen base+nitrogen, 0.5% casamino acids, 2% dextrose) agar plates and grown at 30° C. for 2 days. Individual colonies were patched onto YPD plates with appropriate selection or YNBD plates and grown at 30° C. overnight. Patches were used to inoculate 0.5 mL YPD with appropriate selection or YNBD precultures in 96 w blocks and grown at 30° C. for 24-48 h with 1000 rpm shaking. For assays, 0.5 mL YPD with appropriate selection or YNBD cultures containing substrate were inoculated with 2 μL from precultures and grown at 30° C. for 2-4 days with 1000 rpm shaking with 2% glucose added every 24 h. Assay cultures were quenched by addition of 0.5 mL ethanol with 0.2% formic acid and 0.5 mg/mL pentyl-benzoic acid. Precipitates were pelleted by centrifuging at 4600×g for 10 min and then 200 μL was transferred to fresh plates, sealed, and analyzed via HPLC.
(§2) All samples were quenched with equal volume of EtOH containing 0.2 mg/mL internal standard (3,5-Diisopropyl-2-hydroxybenzoic acid CAS #2215-21-6) centrifuged, and clarified solutions were analyzed by HPLC-MS
(§3) • Column: 2.1×50 mm COSMOCORE PBr (Nacalai USA, Inc.) • Mobile Phase: A; 0.1% formic acid in water, B; 0.1% formic acid in acetonitrile • Flow: 0.45 mL/min • Temp: % 50 Celsius • Gradient: 20%B at 0 min, 70%B at 2.3 min, 89% B at 4.2 min, 20% B at 4.3 min, 20%B at 6 min

olivetolic acid [2] = test: MPT4.1 with and without GPS1.1 fusion vs MPT4 fusion, in vivo assay (Example 5); format: cell-based, Yarrowia; details: 3 mM olivetolic acid, 48 h quench
Method: As described below, plasmids pCL-SE-0337.MPT4.1 and pCL-SE-0753 were transformed into strain sCL-SE-0128. Multiple colonies per transformation were precultured for 24 h in YNB containing glucose (2%), casamino acids (0.5%), and MES (100 mM pH 6.5). Pre-culture was used to inoculate assay medium comprised of YNB containing glucose (6%), casamino acids (0.5%), MES (100 mM pH 6.5), and olivetolic acid (3 mM). Cultures were quenched with equal volume of ethanol after 48 h total growth and assayed for CBGA and FCBGA. Averages and standard deviations were calculated from replicates.
as §1, §2, §3

[3] = 2% glycerol, strain sCL-SE-0128

B1: GPS1.1-F11-MPT4: fusion of GPS1.1 and MPT4 via F11 linker, SEQ ID NO: 16 (protein)
chain: MSKAKFESVFPRISEELVQLLRDEGLPQDAVQWFSDSLQYNCVGGKLNRGLSVVDTYQLLTGKKELDDEEYYRLALLGWLIELLQAFWLVSDDIMDESKTRRGQPCWYLKPKVGMIAIWDAFMLESGIYILLKKHFRQEKYYIDLVELFHDISFKTELGQLVDLLTAPEDEVDLNRFSLDKHSFIVRYKTAYYSFYLPVVLAMYVAGITNPKDLQQAMDVLIPLGEYFQVQDDYLDNFGDPEFIGKIGTDIQDNKCSWLVNKALQKATPEQRQILEDNYGVKDKSKELVIKKLYDDMKIEQDYLDYEEEVVGDIKKKIEQVDESRGFKKEVLNAFLAKIYKRQKGGAEAAAKEAAAKAGGSGGGSGGGGSGGSGGGGSGGGGSMSDNSIATKILNFGHTCWKLQRPYVVKGMISIACGLFGRELFNNRHLFSWGLMWKAFFALVPILSFNFFAAIMNQIYDVDIDRINKPDLPLVSGEMSIETAWILSIIVALTGLIVTIKLKSAPLFVFIYIFGIFAGFAYSVPPIRWKQYPFTNFLITISSHVGLAFTSYSATTSALGLPFVWRPAFSFIIAFMTVMGMTIAFAKDISDIEGDAKYGVSTVATKLGARNMTFVVSGVLLLNYLVSISIGIIWPQVFKSNIMILSHAILAFCLIFQTRELALANYASAPSRQFFEFIWLLYYAEYFVYVFI
modifications: GPS1.1-F11-MPT4, geranyl diphosphate synthase, membrane-bound prenyltransferase fusion protein
CBGA (olivetolic acid [1]; [3]): 376 ± 41 µM | FCBGA (olivetolic acid [1]; [3]): 51 ± 5 µM | CBGA/FCBGA (olivetolic acid [1]; product ratio): 7.4 | CBGA (olivetolic acid [2]; 6% glucose, strain sCL-SE-0128): 326 ± 16 µM | FCBGA (olivetolic acid [2]; 6% glucose, strain sCL-SE-0128): 62 ± 2 µM | CBGA/FCBGA (olivetolic acid [2]; product ratio): 5.2
